Experimental findings from the nanobody polyreactivity screen of Harvey et al. (2022) are described below.

The series is described as follows: yeast display, Sf9 membrane polyspecificity reagent, FACS + sequencing; frameworks hold sequencing errors. Put shortly: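 Galactose-induced (36–48 hours) yeast carrying a synthetic nanobody display library were exposed to 10% biotinylated, detergent-solubilized Sf9 membrane reagent at 4 °C for 1 hour. FACS followed streptavidin microbead enrichment, using low and high (top ~1%) gates for expression (anti-HA) and reagent binding (streptavidin). Colony PCR, MiSeq 2 × 250 sequencing and CDR-length filtering followed. Labels for polyreactivity reflect the gate of origin.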
For the sequence “QVQLVESGGSIVQAGGSLRLSCAASGSTFDVYDMGWYRHAPGKERELVAAITTSGGGTYYADSVKGRFTISRDNAKNTGYLQMNSLKPEDTAVYYCAADTWRDGDDYWGQGTQVTVSS”, the “polyreactivity (PSR sort gate)” value is recorded as “low polyreactivity”.

On to “QVQLVESVGGLVQAVGSLRLSCAASGFTFSDYAMGWYRHAPGKERELVAAISTRCSSTYYADSVKGRFTISRDIAKNNVYLQMNSLKPEDTAVYYCNAVGSYSGYYYWGQGTQVTVSS”, for which the “polyreactivity (PSR sort gate)” value is “high polyreactivity”.

In the case of “QVQLVESGGGLVQAGGSLRLSCAASGITLYQYAMGWYRQAPGKERELVAAISWNGGTTYYADSVKGRFTISRDNAKNNVYLQMNSLKPEDTAVYYCAADGYPYGGPSYYYWGQGTQVTVSS”, the “polyreactivity (PSR sort gate)” value is “high polyreactivity”.

“QDQLVESGGGLVQAGGSLRLSCAASGYTFSYYAMGWYRQAPGKERELVARISWGGGSTYYADSVKGRFTISRDNAKNTVYLQMNSLKPEDTAVYYCNARDLGRDWYWPEDDYWGQGTQVTVSS”: the “polyreactivity (PSR sort gate)” value is listed as “low polyreactivity”.

In the case of “QVQLVESGGGLVQAGGSLRLSCASYGSIFSSYFMGWYRQAPGKERELVAAISSGGRTYYADSVKGRFTISRDNAKNTVYIQMKSLKPEDTAVFYCNRVRYRQSAFDYWGQGTQVTVSS”, the “polyreactivity (PSR sort gate)” value is on record as “high polyreactivity”.

Regarding “QVQLVESGGGLVQAGGSLRLSCAASRSTFYIYVMGWYRQAPGKERELVAAISWSGGSTYYTDSVKGRFTISRDNAKNTVYLQMNSLNPEDTAVYYCNADAHWSVWSYIIDYDYWGEGTQVTVSS”, the “polyreactivity (PSR sort gate)” value is reported as “low polyreactivity”.

Regarding “QVQLVESGGGLVQAGGSLRLSCAASGSTFVYYAMGWYRQAPGKERELVATITSGGSTKYADSVKGRFTISRDNAKNTVYLQMNSLKPEDTAVYYCAAAYRVRGRTYDSWGQGTQVTVSS”, the “polyreactivity (PSR sort gate)” value is listed as “high polyreactivity”.

Take “QVQLQESGGGLVQAGGSLRLSCAASGSISRLDYMGWYRQASGKERELVAAIDNGRTTYYAESVKGRLTISRDNAKYTVYLQMNSLKPEDTAVYCCAAVRGRGGTHAYWGQGTQVTVSG”: the “polyreactivity (PSR sort gate)” value was “low polyreactivity”.

Take “QVQLVESGGGLVQAGGSLRLSCAASGSTFRYNAMGWYRQAPGKERELVAAITSGGTTNYADSVKGRFTISRDNAMNTVYLQMNILKPEDTAVYYCGKRGYYWTNLLYFLGYDYWGQGTQVTVSS”: the “polyreactivity (PSR sort gate)” value is reported as “low polyreactivity”.

“QVQLVESGGGLVQAGGSLRLSCAASGYTFSRYAMGWYRQAPGKERELVADISRSGGSTDYADSVKGRFTISRDNAKNTVYLQMNSLKPEETAVYYCAKGSWWGYYSYGFDYWGQGTQVTVSS”: the “polyreactivity (PSR sort gate)” value was “high polyreactivity”.

“QDQLVESGGGLVQAGGSLRLICAASGSIFSKKAMGLYRQAPGKERELVAAISASGASTYYADSVKGRFTISRDNEKNTVYLQMNSLKPEDTSVYYCNADVSGVSSYGLSYEFYYWGQGTQVTVSS”: the “polyreactivity (PSR sort gate)” value is given as “low polyreactivity”.

With “QVQLVESGGGLVQAGGSLRLSCAASGSIFRRNTMGWYRQAPGKERELVAAITFTGGRTYYADSVKGRFTISRDNAKNTVYLQMNSLKPEDTAVYYCNRVTAYYPTKFDYWGQGTQVTVSS”, the “polyreactivity (PSR sort gate)” value is on record as “high polyreactivity”.

With “QVQLEESGGGLVQAGGSLRLSCAASGSTFDFNAMGWYRQVPGKERELVAAITSGGSTNYADSVKGRFTISRDNAKNTVYLQMNSLKPEDTAVYYCAARPARGDSQGGYVRPWCYDSWGQGTQVTGSS”, the “polyreactivity (PSR sort gate)” value was “low polyreactivity”.

As for “QVQLEESGGGLVQAGGSLRLSCAASGFTFYDYAMVWYRQAPGKERELVAAIRRSGTRTYYADSVKGRFTISRDNAKNTVYLQINSLKPEDTAVYYCAARYSYTHQRDYWGQGTLVTVSS”, the “polyreactivity (PSR sort gate)” value was “high polyreactivity”.

As for “QVQLVESGGGLVQAGGSLLLSSAASGINFGNYAMGWYRQAPGKERELVATIDSAGSPYYADSVNGRFTISRDNAKNTVYLQMNSLKPEDTAVYYCAVRFGTYGRYFGYDYWGQGTQVTVSS”, the “polyreactivity (PSR sort gate)” value is on record as “high polyreactivity”.

In the case of “QVQLVESGGGVVQAGGSLRLSSAASGIIFKRYAMGWYRQAPGKEREFVAAISRSGVRTYYADSVKGRFTISRDNAKNTVFLQMNSLNPEDTAVYYCAAEFANYRDTGESVYWFYYWGQGTQVTVSS”, the “polyreactivity (PSR sort gate)” value is given as “high polyreactivity”.

For “QVQLVESGGGLVQAGGSLRLSCAASGSIFRPYAMGWYRQAPGKERELVAAITWSGGRTYYADSVKGRFTISRDNAKNTVYLQMNSLKPEDTAVYYCAADDSEGFDYWGQGTQVTVSS”, the “polyreactivity (PSR sort gate)” value is given as “high polyreactivity”.

As for “QFQLVESGGGLVQAGGSLRLSCAASGFTIGPYTMAWYRQAPGKERELVAAISYSGASTYYADSVKGRFTISRDNAKNTVYLQMNSLKPEDTAVYYCNTVYRFTRARYPYDYWGQGTQVTVSS”, the “polyreactivity (PSR sort gate)” value is “high polyreactivity”.

As for “QVQLVESGGGLVQAGGSLRLSCAASGRIFWGNAMGWYRQAPGKERELVAAITRRGGTTFYADSVKGRFTISRDNAKNTVYLQMNSLKPEDTAVYYCAARRYGQYDGYDSWGQGTQVTVSS”, the “polyreactivity (PSR sort gate)” value is on record as “high polyreactivity”.

Consider “QVQLVESGGGLVQAGGSLRLSCAASGSILWHNAKGWYRQAPGKEREFVAAISARGTRTYYADSVKGRFTISRDNAKNSVYLQMNSLKPEDTAVYYCAARYWDDRARAEDYWGQGTQVTVSS”, for which the “polyreactivity (PSR sort gate)” value was “high polyreactivity”.

Take “QVHLVESGGGLVQAGGSLRLSCAASGSIFYWNAMGWYRQAPGKESELVATISSRGGRTSYADSVKGRFTLSRDNAKNTVYLQMNSLQPEDTAVDYCAKSIDGWYWRRRRYDYWGQGTQVTVSS”: the “polyreactivity (PSR sort gate)” value is “low polyreactivity”.

In the case of “QVQLVESGGGLVQAGGSLRLSCAASGSTFPVYAMGWYRQAPGKERELFAAISRAGSTNYADSVKGRFTISRDNAKNTVYLQMNSLKPEDTAVYYCAARGYLWAGEWYVRRDYWGQGTQVTVSS”, the “polyreactivity (PSR sort gate)” value is on record as “high polyreactivity”.

For the sequence “QVQLVESGGGLVQAGGSLRLSCAASGSIFVGYARGWYRQAPGKERELVAAISFSGGSTYYADSVKGRFTLSRDNAKNTVYLQMNSLKPEDTAVYYCNAYSWYNGIGNYDYWGQGTQVTVSS”, the “polyreactivity (PSR sort gate)” value was “low polyreactivity”.

As for “QVQLVESGGGLVQAGGSLRLSCAASGRTFSVYAMGWYRQAPGKERELVAVIRGRGGRTYYADSVKGRFTISRDNAKNTVYLQMNSLKPEDTAVYYCNAVGQIVYGKQYDYWGQGTQVTVSS”, the “polyreactivity (PSR sort gate)” value is given as “high polyreactivity”.

On to “QVQLVESGGGLFQAGGSLRLSCAASGFTFDYYAMGWYRQAPGKERELVADINRSGGSSYYADSVKGRFTISRDNAKNTVYLQMNSLKPEDTAVYYCNARVTPFFYHYPRDYYYWGQGTQVTVSS”, for which the “polyreactivity (PSR sort gate)” value is reported as “high polyreactivity”.

For “QVQLVESGGGLVQAGGSLRLSCAASGRIFGYYAMGWYRQAPGKEMELVARITWSGGDTYYADSVKGRFTISRDNAKNTVYLQMNSLKPEDTAVYYCAADYLDSTYGYVYGWDDYWGQGTQVTVSS”, the “polyreactivity (PSR sort gate)” value is given as “low polyreactivity”.

Turning to “QVQLVESGGGLVQAGGSLRLSCAASGRTFAHYAMGWYRQAPGKERELVAVITSGGITYYADSVKGRFTISRDNAKNTVYLQMNSLKPEDTAVYYCNVYSYYYSYGSPYDYWGQGTQVTVSS”, the “polyreactivity (PSR sort gate)” value is reported as “high polyreactivity”.

As for “QVQLVESGGGLVQAGGSLPLSCAASGFTFYRYTMVWYRQAPGKERELVAAISRGGRTYYADSVKGRFTISRDNAKNTDYLQMNSLKPEDTAVYYCNARYPSADDWGQGTQVTVSS”, the “polyreactivity (PSR sort gate)” value is on record as “high polyreactivity”.

On to “QVQLVESGGGLVQAGGSLRLSCAASGRTFFDYTMGWYRQAPGNERELDAAITGGDGSTYYADSVKGRFTISRDNAKNTVYLEMTSLKPEDTAVYYCAAEYTRTYWYAAMDYWGQGTQVTVSS”, for which the “polyreactivity (PSR sort gate)” value is recorded as “low polyreactivity”.

Take “QVQLVESGGGLVQAGGSLRLSCAASGSTFKFYAMGWYRQAPGKERELVAAISRSGGSTYYADSVKGRFTLSRDNAKNTVYLQMNSLKPEDTAGYYCAAERTLKSDYWGQGTQVTVSS”: the “polyreactivity (PSR sort gate)” value is “high polyreactivity”.

On to “QVQLGESGGGLVQAGGSLRLSCAASGNIFYRYAMGWYRQAPGKERELVAAITSDGSTYYADSVKGRFTISRDNAKNTVYLQMNSLKPEDTAVYYCAARRGTGSYSYRYPYGYDYWGQGTQVTVSS”, for which the “polyreactivity (PSR sort gate)” value was “low polyreactivity”.

As for “QVQLVESGGGLVQAGGSLRLRCAASGRIFGVYVMGWYRQAPGKESEFVAAISWSGSHTYYADSVKGRFTISRYNAKNTVYLQMNSLKPEDTAVYYCNADSYPDYTGPGLDWYDFWGQGTQVTVSS”, the “polyreactivity (PSR sort gate)” value is listed as “low polyreactivity”.

For “QVQLVESGGGLVQAGGSLRLSCAASGITFRYYAMGWYRQAPGKERELVARITTDGSTHYADSVKGRFTISRDNAKNTVYLQMNSLKPEDTAVYYCNARHRNLAEYDYWGQGTQVTVSS”, the “polyreactivity (PSR sort gate)” value was “low polyreactivity”.

In the case of “QVQLVESGGGLVQAGGSLRLSCAASGRTCSRYAMGLYRQAPGKERELFAAISKSSGTTSYADSVKGRFSISRDNAKNTVYLQMIRLNPEDTAVYYFAAGITGRYYGVRFSEDYWGQGTQVTVSS”, the “polyreactivity (PSR sort gate)” value was “high polyreactivity”.

For the sequence “QVQLVESGGGLVQAGGSLRLSCAASGRTFIFYAMGWYRQAPGKERELVAAISSSGSGTYYADSVKGRFTISRDNAKNTVYFQMNSLKPEDTAVYYCAADVVNSRRRPKYGYWGQGTQVTVSS”, the “polyreactivity (PSR sort gate)” value is given as “low polyreactivity”.

As for “QVQLVESGGGLVQAGGSLRLSCAASGFIFSKNVMGWYRQATGKERELVALINRSGGTTYYADSVKGRFTISRDNAKNTVYLQMNSLKPEDTAVYYCAARRYGYTSITWYDYLGQGTQVTVSS”, the “polyreactivity (PSR sort gate)” value is “high polyreactivity”.

In the case of “QVQLVESGGGLVHAGGSLRLSFAASGRTFVNNAMGWYRQAPGKERELVAAITGSCGSTYYADSVKGRFTISRDNAKNTFYLQMNSLKPEYTAVYYCAKRHVGSRYLFDYWGQGTQVTVSS”, the “polyreactivity (PSR sort gate)” value was “low polyreactivity”.

On to “QVQLVESGGGLVQAGGSLRLSCAASGITFQANAMGWYRQAPGKERELVAAISSSDGSTYYADSVKGRFTISRDNAKNTVYLQMNSLKPEDTAVYYCNVDYAQRVFLYDYWGQGTQVTVSS”, for which the “polyreactivity (PSR sort gate)” value is “low polyreactivity”.

Consider “QVQLVESGGGLVQAGGSLRLSCAASGRIFGGNAMGWYRQAPGKERELVAAISRNGGRTYYADSVKGRFTISRDNEKNTVYLQKNSLKPEDTAFYYCNAGYKEPHYYYWGQGTQVTVSS”, for which the “polyreactivity (PSR sort gate)” value is on record as “high polyreactivity”.

In the case of “QVQLVESGGGLVQAGGSLRLSCAASVSTFISYAMGWYRQAPGKERELVAAISSSTGRTYYADSVKGRFTISRDNAKNTVYLQLNSLKPEDTAVFYCNAVHRYERDYWGQGTQVTVSS”, the “polyreactivity (PSR sort gate)” value is reported as “high polyreactivity”.
